Target: the molecule itself
Assay: SEC

B1: PikAIV TE wild type (thioesterase domain of the pikromycin polyketide synthase PikAIV) (domain or fragment, Streptomyces venezuelae ATCC 15439, UniProt Q9ZGI2 1057-1346, looked up)
chain: AGMFRALFRQAVEDDRYGEFLDVLAEASAFRPQFASPEACSERLDPVLLAGGPTDRAEGRAVLVGCTGTAANGGPHEFLRLSTSFQEERDFLAVPLPGYGTGTGTGTALLPADLDTALDAQARAILRAAGDAPVVLLGHSGGALLAHELAFRLERAHGAPPAGIVLVDPYPPGHQEPIEVWSRQLGEGLFAGELEPMSDARLLAMGRYARFLAGPRPGRSSAPVLLVRASEPLGDWQEERGDWRAHWDLPHTVADVPGDHFTMMRDHAPAVAEAVLSWLDAIEGIEGAGK
- stoichiometry N: 2

— PMC11804868 (ACS catalysis, 2024)
